Consider four molecules from publication PMC7195491.

Test in all cases: SPR
(SPR reads the build-up and loss of mass on a sensor chip optically.)

For assay [1], the target named is T1, DIP-γ (Dpr Interacting Protein gamma), extracellular region, Q9VAR6.
T1 chain: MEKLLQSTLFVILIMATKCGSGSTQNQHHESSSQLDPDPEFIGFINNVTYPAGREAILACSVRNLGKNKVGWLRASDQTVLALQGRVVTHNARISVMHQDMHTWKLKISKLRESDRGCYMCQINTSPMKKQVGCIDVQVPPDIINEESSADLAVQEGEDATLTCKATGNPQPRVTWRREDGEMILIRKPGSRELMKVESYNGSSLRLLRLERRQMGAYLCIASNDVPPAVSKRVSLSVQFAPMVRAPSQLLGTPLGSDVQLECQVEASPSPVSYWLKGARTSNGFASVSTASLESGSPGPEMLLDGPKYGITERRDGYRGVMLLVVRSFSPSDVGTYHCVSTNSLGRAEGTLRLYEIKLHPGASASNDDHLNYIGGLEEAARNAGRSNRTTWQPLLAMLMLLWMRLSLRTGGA
To be noted: chain shown with the change; 25 °C; 10 mM Tris-HCl, pH 7.2, 150 mM NaCl, 1 mM EDTA, 1 mg mL−1 BSA, 0.01% (v/v) Tween-20; analyte 81 to 0.012 μM, three-fold dilution series.

The target of assay [2] is T2, DIP-α (Dpr Interacting Protein alpha), extracellular region, Q9W4R3.
T2 chain: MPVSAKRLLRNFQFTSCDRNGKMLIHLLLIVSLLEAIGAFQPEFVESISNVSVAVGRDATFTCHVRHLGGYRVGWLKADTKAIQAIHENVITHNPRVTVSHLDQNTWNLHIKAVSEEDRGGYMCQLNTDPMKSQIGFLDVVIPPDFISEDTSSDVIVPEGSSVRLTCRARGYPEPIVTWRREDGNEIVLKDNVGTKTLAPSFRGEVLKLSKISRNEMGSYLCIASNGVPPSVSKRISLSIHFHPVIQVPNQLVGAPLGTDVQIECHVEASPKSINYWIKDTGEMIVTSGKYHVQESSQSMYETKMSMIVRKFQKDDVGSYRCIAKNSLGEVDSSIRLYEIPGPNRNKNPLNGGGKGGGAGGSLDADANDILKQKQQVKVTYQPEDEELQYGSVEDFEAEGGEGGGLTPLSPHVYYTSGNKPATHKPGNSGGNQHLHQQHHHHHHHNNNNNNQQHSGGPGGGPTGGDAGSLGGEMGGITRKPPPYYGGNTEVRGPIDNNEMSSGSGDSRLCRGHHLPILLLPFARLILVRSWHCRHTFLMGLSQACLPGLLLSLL
To be noted: chain shown with the change; 25 °C; 10 mM Tris-HCl, pH 7.2, 150 mM NaCl, 1 mM EDTA, 1 mg mL−1 BSA, 0.01% (v/v) Tween-20; analyte 81 to 0.012 μM, three-fold dilution series; parent: 0.0 kcal/mol.

The target in assay [3] is T3, Dpr11 (Defective proboscis extension response 11), extracellular region, Q8MRE6.
T3 chain: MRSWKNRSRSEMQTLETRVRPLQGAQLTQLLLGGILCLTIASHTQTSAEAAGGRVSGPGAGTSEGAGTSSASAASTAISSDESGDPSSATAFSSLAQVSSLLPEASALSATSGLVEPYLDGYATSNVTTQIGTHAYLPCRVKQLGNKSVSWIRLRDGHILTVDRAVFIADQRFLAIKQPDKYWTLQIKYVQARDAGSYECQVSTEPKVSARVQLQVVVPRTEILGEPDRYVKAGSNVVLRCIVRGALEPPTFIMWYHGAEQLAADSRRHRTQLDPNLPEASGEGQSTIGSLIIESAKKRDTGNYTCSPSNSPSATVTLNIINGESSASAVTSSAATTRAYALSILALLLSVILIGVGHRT
To be noted: chain shown with the change; 25 °C; 10 mM Tris-HCl, pH 7.2, 150 mM NaCl, 1 mM EDTA, 1 mg mL−1 BSA, 0.01% (v/v) Tween-20; analyte 81 to 0.012 μM, three-fold dilution series.

Where a chain is given by its changes, count along the chain named. Names and notes keep the numbering of the source.

B1: Dpr11 (Defective proboscis extension response 11), extracellular region, Q8MRE6 K207V (protein)
chain: T3 chain with K207V
In assay [1], B1 registered a ddG of 0.6 kcal/mol.

B2: Dpr11 (Defective proboscis extension response 11), extracellular region, Q8MRE6 E205Q; K207V (protein)
chain: T3 chain with E205Q, K207V
The molecule B2 registered a ddG in assay [1] of 1.7 kcal/mol.

B3: Dpr11 (Defective proboscis extension response 11), extracellular region, Q8MRE6 K207V; E205Q; G157L (protein)
chain: T3 chain with G157L, E205Q, K207V
With B3, in assay [2], the ddG was less than -2 kcal/mol.

B4: DIP-γ (Dpr Interacting Protein gamma), extracellular region, Q9VAR6 D77T (protein)
chain: T1 chain with D77T
Take B4: the ddG in assay [3] was 0.9 kcal/mol.
